# Measured values taken from US8642834B2, “Methods for the identification of agents that inhibit mesenchymal-like tumor cells or their formation” (OSI Pharmaceuticals, LLC, priority 2009, dated 2014).
# B1: OSM: Oncostatin M from R&D systems, used at 100 ng/ml (protein, UniProt P13725 26-221, looked up)
# Oncostatin-M: AAIGSCSKEYRVLLGQLQKQTDLMQDTSRLLDPYIRIQGLDVPKLREHCRERPGAFPSEETLRGLGRRGFLQTLNATLGCVLHRLADLEQRLPKAQDLERSGLNIEDLEKLQMARPNILGLRNNIYCMAQLLDNSDTAEPTKAGRGASQPPTPTPASDAFQRKLEGCRFLHGYHRFMHSVGRVFSKWGESPNRSRR
# Legend:
# Format in all cases: cell-based, human
# [1] = system: CFPAC1 cells; assay: Transcriptional changes to EMT genes, qPCR
# Experimental: The CFPAC1 cell line was cultured in DMEM media (Gibco #11960) supplemented with 10% FBS (Sigma), 2 mM L Glutamine (Gibco), at 37° C., 5% CO2. For 7 day treatments, cells were seeded on tissue culture plastic in complete growth media and allowed to attach overnight at cell densities that would provide approximately 60-80% confluence at end of experiment. Ligand and/or inhibitor was added the following day (Day 0) in complete growth media and incubated at 37° C., 5% CO2. Ligand source and concentrations used are as follows: [1] From R&D systems, SDF-1α (stromal derived factor-1 alpha) at 100 ng/ml, TRANCE (TNF-related activation induced cytokine) at 50 ng/ml, FGF1 (fibroblast growth factor acidic) at 10 ng/ml, FGF2 (fibroblast growth factor basic) at 10 ng/ml, BMP4 (bone morphogenetic protein 4) at 100 ng/ml, BMP7 (bone morphogenetic protein 7) at 100 ng/ml, IGF2 (insulin-like growth factor 2) at 100 ng/ml, OSM (Oncostatin M) at 100 ng/ml, NRG1 (Neuregulin-1) at 50 ng/ml, PDGFaa (Platelet derived growth factor a) at 50 ng/ml, PDGFbb (platelet derive growth factor b) at 30 ng/ml, Ang2 (Angiopoeitin 2) at 400 ng/ml, amphiregulin at 100 ng/ml, HMGB 1 (Human high-mobility group box 1 protein) at 50 ng/ml; [2] From Genscript, LIF (Leukemia inhibitory factor) at 20 ng/ml, GM-CSF (Granulocyte macrophage colony stimulating factor) at 25 ng/ml, M-CSF (Macrophage colony stimulating factor) at 50 ng/ml; [3] From Anaspec, PAR1 (Protease activated receptor 1 agonist) at 100 μM; PAR2 (Protease activated receptor 2 agonist; peptide SLIGKV-NH2, Cat. No. 60217-1) at 100 μM; PAR4 (Protease activated receptor […] agonist; peptide AYPGKF-NH2, Cat. No. 60218-1) at 100 μM; [4] From Peprotech, HGF (Hepatocyte Growth Factor) at 100 ng/ml; IL-31 (Interleukin-31) at 50 ng/ml, IL-33 (Interleukin-33) at 50 ng/ml, IL1-a (Interleukin-1 alpha) at 10 ng/ml, CTGF (Connective tissue growth factor) at 20 ng/ml, WISP1 (Wnt-1 inducible signaling pathway protein) at 20 ng/ml, PTHrP ([…] hormone-related protein) at 50 ng/ml, MCP1 (monocyte chemotactic protein-1) at 50 ng/ml; and [5] from Sigma, Fulvestrant at 1 μM. Fresh medium containing ligand and/or inhibitor was added 3-4 days after initial dose, and at Day 7 cells were harvested for western blot analysis.
# Cells were plated and treated with ligand for one or 7 days. At the time of harvest, cells were trypsinized and snap frozen for later use. Total RNA was isolated using RNAqueous-4 PCR Kit (Ambion, AM1914). For qPCR on tumor material, the tumor samples were homogenized using a small tissue homogenizer (Ultra-Turrax T8 from IKA-Werke) in 175ul RNA lysis buffer. Homogenization was for 1 minute on ice. RNA was isolated using the SV Total RNA Isolation System (Promega Cat #Z3100) according to the manufactures instructions. Samples were DNase treated using the Turbo DNA-Free kit (Ambion, AM1907) and reverse transcribed using Superscript III (Invitrogen, 18080-044) for qPCR analysis. Taqman primers and Locked-Nucleic Acid probes were designed using ProbeFinder software (Universal Probe library, Roche). For mRNA analysis, real time PCR was performed using the ABI 7900HT series PCR machine. Thermocycle conditions were as follows: 50° C. for 2 minutes, 95° C. for 10 minutes, 95° C. for 15 seconds, 50° C. for 10 seconds, 60° C. for 1 minute. Data was collected over 45 cycles and then normalized to GAPDH and further normalized to the untreated control sample.
# [2] = system: CFPAC1 cells; assay: 2D immunofluorescence of E-cadherin and vimentin; settings: cells treated 7 days with ligand, compared to untreated cells
# Experimental: Cells were plated on coverslips and stimulated with ligand the following day (day 0). On day 4, medium and ligands were refreshed. After 7 days, the cells were fixed in 4% paraformaldehyde (EMS#15701)/PBS (Gibco #14190) for 10 minutes at room temperature, and then permeabilized in 0.1% Triton X-100 (Sigma #P1379)/PBS for 10 minutes. Cells were blocked in 3% BSA/PBS for one hour and incubated in primary antibody solution (E-cadherin, Santa Cruz #sc21791 and Vimentin, Chemicon #AB5733 in blocking buffer) for two hours at room temperature. Cells were washed in PBS and incubated in secondary antibody (Invitrogen #A11029 and Chemicon #AP194R) for one hour followed by nuclear counterstain TO-PRO3 (Invitrogen #T3605). Coverslips were mounted on slides with Pro-Long Gold antifade reagent (Invitrogen P36934). Images were captured on a Leica DMRXE microcope with SP2 scanner using Leica Confocal Software.
# [3] = system: CFPAC-1 cells; assay: Cell morphology by light microscopy; settings: treated 7 days; versus untreated cells that formed colonies
# Experimental: The CFPAC1 cell line was cultured in DMEM media (Gibco #11960) supplemented with 10% FBS (Sigma), 2 mM L Glutamine (Gibco), at 37° C., 5% CO2. For 7 day treatments, cells were seeded on tissue culture plastic in complete growth media and allowed to attach overnight at cell densities that would provide approximately 60-80% confluence at end of experiment. Ligand and/or inhibitor was added the following day (Day 0) in complete growth media and incubated at 37° C., 5% CO2. Ligand source and concentrations used are as follows: [1] From R&D systems, SDF-1α (stromal derived factor-1 alpha) at 100 ng/ml, TRANCE (TNF-related activation induced cytokine) at 50 ng/ml, FGF1 (fibroblast growth factor acidic) at 10 ng/ml, FGF2 (fibroblast growth factor basic) at 10 ng/ml, BMP4 (bone morphogenetic protein 4) at 100 ng/ml, BMP7 (bone morphogenetic protein 7) at 100 ng/ml, IGF2 (insulin-like growth factor 2) at 100 ng/ml, OSM (Oncostatin M) at 100 ng/ml, NRG1 (Neuregulin-1) at 50 ng/ml, PDGFaa (Platelet derived growth factor a) at 50 ng/ml, PDGFbb (platelet derive growth factor b) at 30 ng/ml, Ang2 (Angiopoeitin 2) at 400 ng/ml, amphiregulin at 100 ng/ml, HMGB 1 (Human high-mobility group box 1 protein) at 50 ng/ml; [2] […]
# [4] = system: CFPAC1 cells; assay: Doubling time after ligand treatment; settings: after 7 day ligand treatment, versus untreated
# Experimental: Cells were plated and treated with ligand for 7 days. On day 7, cells were counted and re-plated on 6 cm cell culture dishes. On days 3, 5, 7, 10 and 12, cells were trypsinized and counted to determine the total number of cells in the dish, in duplicate. Doubling time was calculated using the multiple time point method on the website www.doubling-time.com.
molecule,measurement,setting,value
B1,ACTN1 mRNA fold change,[1]; ligand 1 Day,NC (Only changes greater than 3 fold are reported. NC indicates no change.)
same,CDH1 mRNA fold change,[1]; ligand 1 Day,NC (Only changes greater than 3 fold are reported. NC indicates no change.)
same,CDH2 mRNA fold change,[1]; ligand 1 Day,NC (Only changes greater than 3 fold are reported. NC indicates no change.)
same,ITGB3 mRNA fold change,[1]; ligand 1 Day,31.39 fold
same,MMP7 mRNA fold change,[1]; ligand 1 Day,NC (Only changes greater than 3 fold are reported. NC indicates no change.)
same,MTA3 mRNA fold change,[1]; ligand 1 Day,NC (Only changes greater than 3 fold are reported. NC indicates no change.)
same,PLAUR mRNA fold change,[1]; ligand 1 Day,NC (Only changes greater than 3 fold are reported. NC indicates no change.)
same,SNAI1 mRNA fold change,[1]; ligand 1 Day,NC (Only changes greater than 3 fold are reported. NC indicates no change.)
same,SNAI2 mRNA fold change,[1]; ligand 1 Day,NC (Only changes greater than 3 fold are reported. NC indicates no change.)
same,SPARC mRNA fold change,[1]; ligand 1 Day,NC (Only changes greater than 3 fold are reported. NC indicates no change.)
same,TWIST1 mRNA fold change,[1]; ligand 1 Day,NC (Only changes greater than 3 fold are reported. NC indicates no change.)
same,VIM mRNA fold change,[1]; ligand 1 Day,NC (Only changes greater than 3 fold are reported. NC indicates no change.)
same,ZEB1 mRNA fold change,[1]; ligand 1 Day,NC (Only changes greater than 3 fold are reported. NC indicates no change.)
same,ZEB2 mRNA fold change,[1]; ligand 1 Day,3.52 fold
same,ACTN1 mRNA fold change,[1]; ligand 7 Day,NC (Only changes greater than 3 fold are reported. NC indicates no change.)
same,CDH1 mRNA fold change,[1]; ligand 7 Day,−3.06 fold
same,CDH2 mRNA fold change,[1]; ligand 7 Day,NC (Only changes greater than 3 fold are reported. NC indicates no change.)
same,ITGB3 mRNA fold change,[1]; ligand 7 Day,106.2 fold
same,MMP7 mRNA fold change,[1]; ligand 7 Day,NC (Only changes greater than 3 fold are reported. NC indicates no change.)
same,MTA3 mRNA fold change,[1]; ligand 7 Day,NC (Only changes greater than 3 fold are reported. NC indicates no change.)
same,PLAUR mRNA fold change,[1]; ligand 7 Day,NC (Only changes greater than 3 fold are reported. NC indicates no change.)
same,SNAI1 mRNA fold change,[1]; ligand 7 Day,NC (Only changes greater than 3 fold are reported. NC indicates no change.)
same,SNAI2 mRNA fold change,[1]; ligand 7 Day,NC (Only changes greater than 3 fold are reported. NC indicates no change.)
same,SPARC mRNA fold change,[1]; ligand 7 Day,−33 fold
same,TWIST1 mRNA fold change,[1]; ligand 7 Day,3.3 fold
same,VIM mRNA fold change,[1]; ligand 7 Day,NC (Only changes greater than 3 fold are reported. NC indicates no change.)
same,ZEB1 mRNA fold change,[1]; ligand 7 Day,3.00 fold
same,ZEB2 mRNA fold change,[1]; ligand 7 Day,13.7 fold
same,E-cadherin and vimentin staining,[2],strong vimentin staining with no E-cadherin
same,Cell morphology,[3],less compact with more elongated cell morphology
same,Increase of doubling time,[4],approximately 50%
